The record followed here is PMC5600358.

B1: ds59 (Pu59/Py59) (dsDNA)
DNA 1: GGCGGCGCGGAGGGGCGGGCGCGGGAGGAAGGGGGCGGGACGGGGCTGTGGTGCCTGT
DNA 2: ACAGGCACCACAGCCCCGTCCCGCCCCCTTCCTCCCGCGCCCGCCCCTCCGCGCCGCC
B2: Pu59 (G-strand) (structured_DNA)
DNA: GGCGGCGCGGAGGGGCGGGCGCGGGAGGAAGGGGGCGGGACGGGGCTGTGGTGCCTGT
B3: Py59 (C-strand) (ssDNA)
DNA: ACAGGCACCACAGCCCCGTCCCGCCCCCTTCCTCCCGCGCCCGCCCCTCCGCGCCGCC

The data set deals with WT1 ZF-KTS (zinc finger domain, -KTS isoform) (Homo sapiens (cDNA from HL-60 cells), UniProt P19544 312-407+411-449, internal_change). Kind of data set: EMSA. A general note: A gel shift assay detects complexes by their altered migration in electrophoresis.
For B1, the binding result is given as “binds”.
Next, B2: “no binding”; B3: “no binding”.
